Experimental data from article PMC9817179.

Key:
NLS-TAF15(IDR)-Halo-FTH1 = NLS-TAF15(IDR)-Halo-FTH1 (UniProt Q92804); experiment: live-cell single-particle tracking (SPT), residence time in puncta; living U2OS cells at 37°C, 5% CO2; HILO illumination; PA-JF646-labelled single molecules tracked (500 ms per frame, 2000 frames) within puncta of the same protein seen with JFX549; in-puncta trajectories; specific residence time of a two-component exponential fit, corrected for photobleaching with H2B-Halo
Halo-TAF15(IDR)-NLS = Halo-TAF15(IDR)-NLS (UniProt Q92804); experiment: as above

Chain of Halo-TAF15(IDR)-NLS (Q92804 whole entry): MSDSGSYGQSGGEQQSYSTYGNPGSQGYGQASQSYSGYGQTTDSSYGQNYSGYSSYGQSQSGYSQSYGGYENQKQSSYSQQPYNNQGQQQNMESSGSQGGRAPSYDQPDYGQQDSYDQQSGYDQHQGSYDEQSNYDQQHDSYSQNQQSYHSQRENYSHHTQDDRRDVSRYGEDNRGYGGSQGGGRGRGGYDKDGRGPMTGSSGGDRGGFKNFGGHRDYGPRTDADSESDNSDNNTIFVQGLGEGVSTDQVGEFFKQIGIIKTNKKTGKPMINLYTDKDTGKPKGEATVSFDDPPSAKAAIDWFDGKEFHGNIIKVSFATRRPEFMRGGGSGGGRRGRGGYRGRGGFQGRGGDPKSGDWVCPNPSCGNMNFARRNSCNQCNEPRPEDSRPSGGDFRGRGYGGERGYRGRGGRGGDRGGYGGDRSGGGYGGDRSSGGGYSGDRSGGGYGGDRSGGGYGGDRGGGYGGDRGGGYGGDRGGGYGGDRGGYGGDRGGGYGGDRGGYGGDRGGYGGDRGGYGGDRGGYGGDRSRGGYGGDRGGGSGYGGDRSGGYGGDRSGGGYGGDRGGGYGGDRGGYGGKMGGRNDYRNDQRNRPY

| residence time (RT) at its puncta (NLS-TAF15(IDR)-Halo-FTH1) [s] | residence time (RT) at its puncta (Halo-TAF15(IDR)-NLS) [s] | Substance |
| --- | --- | --- |
| 64.2 | – | NLS-TAF15(IDR)-Halo-FTH1 (from UniProt Q92804 2-205) |
| – | 10.2 | Halo-TAF15(IDR)-NLS (from UniProt Q92804 2-205) (domain or fragment) |
